Experiments:
Assay in all cases: X-ray crystallography
mZFP568 ZF1-10 = mZFP568 ZF1-10 (Mus musculus, UniProt E9PYI1 363-637)
mZFP568 ZF2-11 = mZFP568 ZF2-11 (Mus musculus, UniProt E9PYI1 391-665)
mZFP568 ZF1-11 = mZFP568 ZF1-11 (Mus musculus, UniProt E9PYI1 363-665)
mZFP568 ZF1-11, sequence (E9PYI1 363-665): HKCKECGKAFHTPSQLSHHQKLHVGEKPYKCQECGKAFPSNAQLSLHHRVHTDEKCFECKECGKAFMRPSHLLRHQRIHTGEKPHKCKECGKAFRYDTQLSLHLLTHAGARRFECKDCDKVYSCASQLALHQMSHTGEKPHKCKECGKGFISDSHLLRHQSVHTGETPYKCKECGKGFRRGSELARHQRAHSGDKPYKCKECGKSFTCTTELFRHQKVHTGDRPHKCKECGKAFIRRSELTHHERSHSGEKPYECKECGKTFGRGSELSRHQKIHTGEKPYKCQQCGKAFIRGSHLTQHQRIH

mZFP568 ZF2-11, sequence (E9PYI1 391-665): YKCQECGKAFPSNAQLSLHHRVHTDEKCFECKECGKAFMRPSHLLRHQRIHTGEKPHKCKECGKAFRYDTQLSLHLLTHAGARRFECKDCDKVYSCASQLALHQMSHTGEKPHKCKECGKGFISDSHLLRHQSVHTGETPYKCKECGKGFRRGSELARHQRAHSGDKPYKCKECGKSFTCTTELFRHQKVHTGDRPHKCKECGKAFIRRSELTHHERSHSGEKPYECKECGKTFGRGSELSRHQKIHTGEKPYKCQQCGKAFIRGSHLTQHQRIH
mZFP568 ZF1-10, sequence (E9PYI1 363-637): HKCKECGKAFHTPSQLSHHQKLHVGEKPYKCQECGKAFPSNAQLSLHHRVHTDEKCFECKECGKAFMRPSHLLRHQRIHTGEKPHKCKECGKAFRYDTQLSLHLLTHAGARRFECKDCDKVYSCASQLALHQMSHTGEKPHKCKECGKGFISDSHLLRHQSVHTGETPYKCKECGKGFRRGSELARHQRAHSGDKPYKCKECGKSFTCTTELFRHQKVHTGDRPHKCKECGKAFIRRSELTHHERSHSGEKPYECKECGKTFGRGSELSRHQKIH

Binder	binding result (mZFP568 ZF1-10)	binding result (mZFP568 ZF2-11)	binding result (mZFP568 ZF1-11)
26-bp mouse Igf2-P0 crystallization oligo (dsDNA) DNA 1: GTGGGCGTGGCACAGGTAAAAAGGGC DNA 2: GCCCTTTTTACCTGTGCCACGCCCAC	binds		
28-bp mouse Igf2-P0 crystallization oligo (dsDNA) DNA 1: TGTGGGCGTGGCACAGGTAAAAAGGGCA DNA 2: TGCCCTTTTTACCTGTGCCACGCCCACA		binds	binds

From PMC5877318
